Test results reported in patent publication US20230365672A1 (KINDRED BIOSCIENCES, published 2023).
Changes are numbered by the printed parent chain. One block for each binder: values may come before it.

How the values were obtained:
[1] = target: T1, biotinylated equine IL31 (immobilized to the biolayer interferometry sensor) (equine, biotinylated, sites not stated); assay: biolayer interferometry, biotinylated equine IL31 on the sensor, preliminary measurement
T1 chain: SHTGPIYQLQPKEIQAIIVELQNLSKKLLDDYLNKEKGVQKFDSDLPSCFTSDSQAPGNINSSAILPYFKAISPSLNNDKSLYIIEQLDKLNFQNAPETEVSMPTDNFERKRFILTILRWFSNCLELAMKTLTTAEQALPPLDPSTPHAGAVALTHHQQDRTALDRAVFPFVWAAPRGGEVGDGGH

[2] = target: T2, canine IL31 with C-terminal polyHis tag (canine, biotinylated (EZ-Link NHS-LC-biotin), sites not stated); assay: biolayer interferometry (Octet), biotinylated canine IL31 on streptavidin tips, 2:1 binding model
T2 construct: also called biotinylated canine IL31
T2 chain: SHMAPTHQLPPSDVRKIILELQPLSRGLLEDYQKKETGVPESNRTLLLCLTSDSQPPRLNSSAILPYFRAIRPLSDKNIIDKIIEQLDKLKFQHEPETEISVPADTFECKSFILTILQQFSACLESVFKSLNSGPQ
Description: The binding analysis was performed using a biosensor Octet as follows. Briefly, canine IL31 was biotinylated. The free unreacted biotin was removed from biotinylated IL31 by extensive dialysis. Biotinylated canine IL31 was captured on streptavidin sensor tips. The association of four different concentrations (400, 200, 66.6, and 33 nM) of antibody and IL31 (human and canine, in different tests) was monitored for ninety seconds. Dissociation was monitored for 600 seconds. A buffer only blank curve was subtracted to correct for any drift. The data were fit to a 2:1 binding model using ForteBio™ data analysis software to determine the kₒₙ, koff, and the Kd. The buffer for dilutions and all binding steps was: 20 mM phosphate, 150 mM NaCl, pH 7.2.

Kd [1]: 10 to 50 nM
B1: M14 antibody (as used in Example 7) (antibody, V domains shown)
VH: EVQLQESGPSLVKPSQTLSLTCSVTGDSITSGYWNWIRKFPGNKLEYMGYISYSGITDYNPSLKSRISITRDTSKNQYYLQLNSVTTEDTATYYCARYGNYGYAMDYWGQGTSVTVSS
VL: DIVLTQSPASLAVSLGQRATISCRASESVDTYGNSFMHWYQQKSGQSPKLLIYRASNLESGIPARFGGSGSRTDFTLTIDPVEADDVATYYCQQSYEDPWTFGGGTKLEIK
notes: also called monoclonal antibody M14

Kd [2]: < 0.01 nM
B2: caninized M14 IgG-B (antibody, V domains shown)
VH: B1 VH with Q5V, S15G, Q16G, T17S, S19R, S68T, T70S, S113L
VL: DIVMTQSPASLSVSLGQRATISCRASESVDTYGNSFMHWYQQKPGQSPKLLIYRASNLESGIPARFGGSGSGTDFTLTIDPVQADDVATYYCQQSYEDPWTFGGGTKLEIKR
notes: canine IgG-B; also called caninized M14 antibody; caninized IL31-mAb M14
